Consider three molecules from US20230138315A1 (JIANGSU HENGRUI MEDICINE, published 2023).

Changes are numbered by the printed parent chain. In names and notes the source's numbering stands.

Broadly, the Kd is the concentration at which binding is half-saturated. The koff is the rate constant with which the complex falls apart. Usually kon stands for a measure of how fast the partners come together. In general, EC50 refers to the concentration needed to bring the measured effect to its halfway point.

For experiment [1], the target named is T1, rat ANGPTL3(17-455)-His (rat, biotin-labelled in the ELISA and HTRF assays (sites not given)).
T1 chain: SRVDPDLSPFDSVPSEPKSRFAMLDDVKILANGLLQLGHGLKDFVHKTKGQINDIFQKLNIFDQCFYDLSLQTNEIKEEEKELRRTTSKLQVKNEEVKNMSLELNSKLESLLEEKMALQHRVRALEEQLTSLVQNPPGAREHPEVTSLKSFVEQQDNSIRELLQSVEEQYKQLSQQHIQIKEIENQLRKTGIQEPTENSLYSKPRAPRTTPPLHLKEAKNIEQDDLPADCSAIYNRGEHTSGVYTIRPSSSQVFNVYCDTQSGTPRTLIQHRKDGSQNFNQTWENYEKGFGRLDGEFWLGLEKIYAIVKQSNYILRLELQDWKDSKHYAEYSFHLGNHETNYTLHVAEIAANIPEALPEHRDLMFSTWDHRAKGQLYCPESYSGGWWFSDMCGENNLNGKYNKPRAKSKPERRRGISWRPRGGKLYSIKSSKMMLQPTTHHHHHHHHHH
Kind of experiment: cell-based or functional assay.

The target in experiment [2] is T2, human ANGPTL3(17-170)-Flag-His (human).
T2 chain: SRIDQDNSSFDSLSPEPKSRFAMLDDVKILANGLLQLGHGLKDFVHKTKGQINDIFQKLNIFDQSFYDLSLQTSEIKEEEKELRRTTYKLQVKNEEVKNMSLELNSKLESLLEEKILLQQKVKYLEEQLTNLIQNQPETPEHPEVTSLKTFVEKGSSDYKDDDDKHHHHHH
The experiment can be described thus: cell-based or functional assay.

Experiment [3] addresses T3, mouse ANGPTL3(17-455)-His (mouse, UniProt Q9R182 17-455, biotin-labelled in the ELISA and HTRF assays (sites not given)).
T3 sequence: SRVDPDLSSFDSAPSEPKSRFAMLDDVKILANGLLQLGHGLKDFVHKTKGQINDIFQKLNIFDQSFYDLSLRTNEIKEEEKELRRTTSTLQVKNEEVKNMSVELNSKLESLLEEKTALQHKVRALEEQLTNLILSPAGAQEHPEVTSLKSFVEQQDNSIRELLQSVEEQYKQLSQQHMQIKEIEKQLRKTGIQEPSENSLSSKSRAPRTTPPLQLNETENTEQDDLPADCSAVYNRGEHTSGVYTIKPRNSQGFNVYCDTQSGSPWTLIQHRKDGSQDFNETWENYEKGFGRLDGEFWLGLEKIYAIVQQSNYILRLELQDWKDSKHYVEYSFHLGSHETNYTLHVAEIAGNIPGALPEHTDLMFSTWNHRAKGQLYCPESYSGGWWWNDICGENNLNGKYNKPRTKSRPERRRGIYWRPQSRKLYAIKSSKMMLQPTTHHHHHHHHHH
The experiment can be described thus: cell-based or functional assay.

Experiment [4] concerns the target T4, cynomolgus monkey ANGPTL3(17-460)-His (cynomolgus monkey, UniProt Q9Y5C1 17-460 (human entry), biotin-labelled in the ELISA and HTRF assays (sites not given)).
T4 chain: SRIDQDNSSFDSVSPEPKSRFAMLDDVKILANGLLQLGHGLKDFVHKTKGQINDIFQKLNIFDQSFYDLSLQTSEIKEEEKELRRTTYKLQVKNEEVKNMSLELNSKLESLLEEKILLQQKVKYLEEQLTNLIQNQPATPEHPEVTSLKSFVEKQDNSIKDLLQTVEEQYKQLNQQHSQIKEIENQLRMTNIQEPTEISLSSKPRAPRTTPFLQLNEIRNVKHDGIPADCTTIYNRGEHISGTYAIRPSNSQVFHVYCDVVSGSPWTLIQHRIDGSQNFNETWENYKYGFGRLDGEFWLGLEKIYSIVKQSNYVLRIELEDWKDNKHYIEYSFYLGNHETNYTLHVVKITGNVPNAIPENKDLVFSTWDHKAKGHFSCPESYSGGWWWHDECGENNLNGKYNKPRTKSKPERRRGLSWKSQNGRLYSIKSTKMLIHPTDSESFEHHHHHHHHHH
The experiment can be described thus: cell-based or functional assay.

Experiment [5] concerns the target T1, rat ANGPTL3(17-455)-His. Kind of experiment: SPR (Biacore T200); antibody captured on Protein A chip, antigen in flow; 1:1 Langmuir fit. The text has this:
(§1) Biacore was used to determine the affinity of the test anti-ANGPTL3 antibodies for human, monkey, rat and mouse ANGPTL3, and the method is as follows:
(§2) Reaction signals were detected in real time using a Biacore T200 instrument to obtain association and dissociation curves. After each cycle of dissociation was completed, the biochip was washed and regenerated using a glycine-hydrochloric acid regeneration solution (Cat. # BR-1003-54, GE, pH 1.5). The running buffer for the experiment was 1×HBS-EP buffer (Cat. # BR-1001-88, GE). The data obtained from the experiment were fitted with the (1:1) Langmuir model using GE Biacore T200 evaluation software (version 3.0) to obtain affinity values.
A general note: In SPR one partner is held on a chip, and binding of the other changes the refractive index at the surface.

Experiment [6] addresses T3, mouse ANGPTL3(17-455)-His. The experiment is described as above.
Source text: as §1, §2

For experiment [7], the target named is T1, rat ANGPTL3(17-455)-His. The experiment can be described thus: HTRF; biotin-labelled antigen with Streptavidin-Tb cryptate. In general terms: Time-resolved FRET reads energy transfer from a long-lived donor to a nearby acceptor.
Experiment [8] has as its target T3, mouse ANGPTL3(17-455)-His. The experiment is described as above.
The target in experiment [9] is T4, cynomolgus monkey ANGPTL3(17-460)-His. The description is as above.

B1: P3G (antibody, human IgG4 S228P, kappa, V domains shown)
VH: QVQLVQSGAEVKKPGASVKVSCKSSGYTFTDYYLHWLRQAPGQGPEWMGWISPNSGGTSYAQKFQGRVTMTRDTSISTAYMELSSLRSDDTAVYYCARDIATLGNFFTYGMDVWGQGTTVTVSS
VL: DIQLTQSPSSLSASVGDRVTITCRASQGIRNDLGWYQQKPGKAPKLLIYAASSLQSGVPSRFSGSGSGTDFTLTISSLQPEDFATYYCQQSYSSWTFGQGTKVEIKR
notes: also called anti-ANGPTL3 antibody P3G; P3 (variable regions)
Consider B1, for which the “IC50 of blocking the inhibition of bovine LPL enzyme activity by ANGPTL3” value with rat ANGPTL3(17-455)-His [1] amounted to 66.5 nM; in experiment [2] it was 68.9 nM; in experiment [3], 168 nM; in [4], 42.4 nM. In addition, the Kd with rat ANGPTL3(17-455)-His [5] stood at 0.639 nM; in [6] it was 0.843 nM. In addition, the figures for the koff (with rat ANGPTL3(17-455)-His [5]; in experiment [6]) were 0.00082 s⁻¹ and 0.000827 s⁻¹, respectively. Also, the kon was 1.28e+06 M⁻¹ s⁻¹ with rat ANGPTL3(17-455)-His [5] and 981000 M⁻¹ s⁻¹ in experiment [6].

B2: P8G (antibody, human IgG4 S228P, kappa, V domains shown)
VH: QVQLVQSGAEVKKPGASVKVSCKASGYTFTSYDINWVRQAPGQGLEWVGLINPRDDSTSYAQKFQGRVTMTRDTSTSTMYMELSSLRSEDTAVYFCARDLGSIREVLYYGMDVWGQGTTVTVSS
VL: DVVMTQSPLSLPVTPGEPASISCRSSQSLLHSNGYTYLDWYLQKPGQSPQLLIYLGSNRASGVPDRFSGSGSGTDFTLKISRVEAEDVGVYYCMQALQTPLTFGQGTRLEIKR
notes: also called anti-ANGPTL3 antibody P8G; P8 (variable regions)
In the experiment with rat ANGPTL3(17-455)-His [5], B2 came in with a Kd of 0.25 nM, a koff of 0.000335 s⁻¹ and an on-rate (kon) of 1.34e+06 M⁻¹ s⁻¹. In experiment [6], binding was put at a Kd of 0.355 nM, the koff amounted to 0.000345 s⁻¹ and the kon worked out at 970000 M⁻¹ s⁻¹.

B3: P8BG (antibody, human IgG4 S228P, kappa, V domains shown)
VH: B2 VH with D55E
VL: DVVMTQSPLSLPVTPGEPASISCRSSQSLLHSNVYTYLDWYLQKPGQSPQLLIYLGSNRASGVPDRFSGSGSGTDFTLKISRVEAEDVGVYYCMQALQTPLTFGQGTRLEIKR
notes: also called anti-ANGPTL3 antibody P8BG; P8B (variable regions)
For the molecule B3, the “IC50 of blocking the inhibition of bovine LPL enzyme activity by ANGPTL3” value was 132 nM in the experiment with rat ANGPTL3(17-455)-His [1], 75.3 nM in experiment [2], 41.5 nM in experiment [3] and 53.6 nM in [4]. For the same molecule, the EC50 was 0.362 nM with rat ANGPTL3(17-455)-His [7], 0.321 nM in [8] and 0.36 nM in experiment [9]. The results for the Kd (with rat ANGPTL3(17-455)-His [5]; in [6]) were 0.257 nM and 0.288 nM, respectively. The results for the koff (with rat ANGPTL3(17-455)-His [5]; in experiment [6]) were 0.000311 s⁻¹ and 0.00042 s⁻¹, respectively. Besides, the kon with rat ANGPTL3(17-455)-His [5] came to 1.21e+06 M⁻¹ s⁻¹; in experiment [6] it was 1.46e+06 M⁻¹ s⁻¹.
